Target: MAK33 VL S20N (murine)
Experiment: negative-stain transmission electron microscopy; non-fibrillar oligomers; 50 uM monomer, 25 mM acetic acid, 25 mM phosphoric acid, 50 mM NaCl, pH 2, room temperature, quiescent; number of monomers estimated from the mean particle diameter

- stoichiometry N (monomers per oligomer): 30
Substance: MAK33 VL S20N (domain or fragment)

Source: article PMC5528828
